From patent US20210246166A1 (Bayer, published 2021)
Numbered stars: 1 amine (or outer) side, 2 acyl side, 3 side chain; on linkers, the order of the positions; unused ones are H or OH. Bridge positions count the residues as written; N and C are the ends. Square brackets hold non-standard residues; d marks the D form. Ends that are not written are not given here. * marks the point of attachment. X17 = 2‑((1S,2S)-1-(Amino)-2-methylbutyl)‑1,3‑oxazole‑4‑carboxylic acid, CC[C@H](C)[C@H](N[*:1])c1nc(C(=O)[*:2])co1; (3-Chloro-Ph)G = 3-chlorophenylglycine, O=C([C@@H](N[*:1])c1cccc(Cl)c1)[*:2]; Oic = O=C(O)[C@@H]1C[C@@H]2CCCC[C@@H]2N1; Phe(3-Br) = N[C@@H](Cc1cccc(Br)c1)C(=O)O; Cyclobutanecarbonyl = O=C(C1CCC1)*; tBuAla = CC(C)(C)C[C@H](N)C(=O)O; Pen = CC(C)(S)[C@H](N)C(=O)O; αMeP = C[C@@]1(C(=O)O)CCCN1; NMeC = CN[C@@H](CS)C(=O)O; NPhGly = O=C(O)CNc1ccccc1; Pip = O=C(O)[C@@H]1CCCCN1; NMeA = CN[C@@H](C)C(=O)O; Orn = NCCC[C@H](N)C(=O)O; Sar = CNCC(=O)O

T1: Recombinant human MASP1 enzyme (fragment corresponding to amino acids 297-699, C-terminal His Tag) (human, UniProt P48740 297-699)
T1 sequence: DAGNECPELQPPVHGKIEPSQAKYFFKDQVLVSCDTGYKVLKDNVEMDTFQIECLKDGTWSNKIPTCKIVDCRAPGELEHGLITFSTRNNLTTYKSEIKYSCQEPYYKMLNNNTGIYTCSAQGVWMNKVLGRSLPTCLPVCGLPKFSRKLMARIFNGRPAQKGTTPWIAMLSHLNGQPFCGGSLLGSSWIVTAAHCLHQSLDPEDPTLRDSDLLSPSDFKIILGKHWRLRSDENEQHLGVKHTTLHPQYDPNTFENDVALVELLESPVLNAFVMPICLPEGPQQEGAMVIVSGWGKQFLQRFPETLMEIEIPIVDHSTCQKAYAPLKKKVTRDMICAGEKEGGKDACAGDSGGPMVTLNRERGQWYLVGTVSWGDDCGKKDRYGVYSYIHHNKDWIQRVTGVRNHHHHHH

T2: recombinant human MASP1 active protease (amino acids 297-699, C-terminal His Tag) (human, UniProt P48740 297-699)
T2 sequence: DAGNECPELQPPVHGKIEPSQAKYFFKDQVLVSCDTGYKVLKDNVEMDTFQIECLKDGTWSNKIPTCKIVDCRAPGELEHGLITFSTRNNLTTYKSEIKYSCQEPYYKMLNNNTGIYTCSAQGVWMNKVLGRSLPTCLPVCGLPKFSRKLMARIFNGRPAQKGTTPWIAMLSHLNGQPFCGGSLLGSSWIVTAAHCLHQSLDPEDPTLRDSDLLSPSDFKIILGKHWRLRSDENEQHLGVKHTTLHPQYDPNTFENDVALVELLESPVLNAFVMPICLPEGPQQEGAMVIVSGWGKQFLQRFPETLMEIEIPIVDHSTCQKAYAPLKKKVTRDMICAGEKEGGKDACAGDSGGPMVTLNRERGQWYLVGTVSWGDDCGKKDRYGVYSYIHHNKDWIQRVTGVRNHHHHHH


Tests used:
Test in all cases: cell-based or functional assay
[1] = molecular target: T1, Recombinant human MASP1 enzyme …
[2] = molecular target: Recombinant human MASP2 enzyme (fragment corresponding to amino acids 297-686, C-terminal His Tag) (human, UniProt O00187 297-686)
Sequence of Recombinant human MASP2 enzyme (fragment corresponding to amino acids 297-686, C-terminal His Tag) (O00187 other isoform, or with tags, fused parts or gaps limits assumed): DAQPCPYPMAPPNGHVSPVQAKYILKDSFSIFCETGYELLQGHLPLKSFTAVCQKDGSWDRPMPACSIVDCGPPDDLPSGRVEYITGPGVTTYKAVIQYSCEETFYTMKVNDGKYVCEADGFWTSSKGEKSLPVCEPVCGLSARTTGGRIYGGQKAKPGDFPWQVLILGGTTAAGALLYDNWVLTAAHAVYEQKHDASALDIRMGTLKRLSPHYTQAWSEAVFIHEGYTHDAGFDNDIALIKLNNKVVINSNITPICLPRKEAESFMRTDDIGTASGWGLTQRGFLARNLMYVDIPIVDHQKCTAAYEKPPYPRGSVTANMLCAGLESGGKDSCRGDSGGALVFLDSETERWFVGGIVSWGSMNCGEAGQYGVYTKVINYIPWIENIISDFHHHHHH

[3] = molecular target: T2, recombinant human MASP1 active protease …

Binder | human MASP1 IC50 [1] [nM] | human MASP2 IC50 [2] [nM] | human MASP1 IC50 [3] [nM]
[Phe(3-Br)]ICSRS[tBuAla]PPI[Pen]IPD-NH2 (disulfide 3-11; N-terminus assumed; SMILES CC[C@H](C)[C@H](NC(=O)[C@@H](N)Cc1cccc(Br)c1)C(=O)N[C@H]1CSSC(C)(C)[C@@H](C(=O)N[C@H](C(=O)N2CCC[C@H]2C(=O)N[C@@H](CC(=O)O)C(N)=O)[C@@H](C)CC)NC(=O)[C@H]([C@@H](C)CC)NC(=O)[C@@H]2CCCN2C(=O)[C@@H]2CCCN2C(=O)[C@H](CC(C)(C)C)NC(=O)[C@H](CO)NC(=O)[C@H](CCCNC(=N)N)NC(=O)[C@H](CO)NC1=O) [Example 330: ((3-Bromo)F)-IC+SRS-((tBu)A)-PPI-(Pen)+IPD-NH2] |  |  | 24
[Sar]ICSRSLPPICI[αMeP]D-OH (disulfide 3-11; N-terminus assumed; SMILES CC[C@H](C)[C@H](NC(=O)CNC)C(=O)N[C@H]1CSSC[C@@H](C(=O)N[C@H](C(=O)N2CCC[C@@]2(C)C(=O)N[C@@H](CC(=O)O)C(=O)O)[C@@H](C)CC)NC(=O)[C@H]([C@@H](C)CC)NC(=O)[C@@H]2CCCN2C(=O)[C@@H]2CCCN2C(=O)[C@H](CC(C)C)NC(=O)[C@H](CO)NC(=O)[C@H](CCCNC(=N)N)NC(=O)[C@H](CO)NC1=O) [((N-Me)G)-IC+SRSLPP-IC+I-((2-Me)P)-D-OH] | 16 | 160 | 
{Tetrahydro‑2H‑pyran‑3‑ylacetic acid}-ICSRSLP[Oic]I[Pen]IP-NH2 (disulfide 2-10) [(Tetrahydro-2H-pyran-3-ylacetic acid)-IC+SRSLP-(Oic)-I-(Pen)+IP-NH2] | 17 | 12 | 
[NPhGly]ICSRS[tBuAla]PPI[NMeC]I-NH2 (disulfide 3-11; N-terminus assumed; SMILES CC[C@H](C)[C@H](NC(=O)[C@@H]1CSSC[C@H](NC(=O)[C@@H](NC(=O)CNc2ccccc2)[C@@H](C)CC)C(=O)N[C@@H](CO)C(=O)N[C@@H](CCCNC(=N)N)C(=O)N[C@@H](CO)C(=O)N[C@@H](CC(C)(C)C)C(=O)N2CCC[C@H]2C(=O)N2CCC[C@H]2C(=O)N[C@@H]([C@@H](C)CC)C(=O)N1C)C(N)=O) [((N-Ph)G)-IC+SRS-((tBu)A)-PPI-((N-Me)C)+I-NH2] | 18 | 42 | 
FICSRSLP[Oic]I[Pen]IP-NH2 (disulfide 3-11; N-terminus assumed; SMILES CC[C@H](C)[C@H](NC(=O)[C@@H](N)Cc1ccccc1)C(=O)N[C@H]1CSSC(C)(C)[C@@H](C(=O)N[C@H](C(=O)N2CCC[C@H]2C(N)=O)[C@@H](C)CC)NC(=O)[C@H]([C@@H](C)CC)NC(=O)[C@@H]2C[C@@H]3CCCC[C@@H]3N2C(=O)[C@@H]2CCCN2C(=O)[C@H](CC(C)C)NC(=O)[C@H](CO)NC(=O)[C@H](CCCNC(=N)N)NC(=O)[C@H](CO)NC1=O) [FIC+SRSLP-(Oic)-I-(Pen)+IP-NH2] | 16 | 81 | 
[NMeA]ICSRSLPPICIPD-NH2 (disulfide 3-11; N-terminus assumed; SMILES CC[C@H](C)[C@H](NC(=O)[C@H](C)NC)C(=O)N[C@H]1CSSC[C@@H](C(=O)N[C@H](C(=O)N2CCC[C@H]2C(=O)N[C@@H](CC(=O)O)C(N)=O)[C@@H](C)CC)NC(=O)[C@H]([C@@H](C)CC)NC(=O)[C@@H]2CCCN2C(=O)[C@@H]2CCCN2C(=O)[C@H](CC(C)C)NC(=O)[C@H](CO)NC(=O)[C@H](CCCNC(=N)N)NC(=O)[C@H](CO)NC1=O) [((N-Me)A)-IC+SRSLPPIC+IPD-NH2] | 18 | 500 | 
GICSRSL[Pip]PICID-OH (disulfide 3-11; N-terminus assumed; SMILES CC[C@H](C)[C@H](NC(=O)CN)C(=O)N[C@H]1CSSC[C@@H](C(=O)N[C@H](C(=O)N[C@@H](CC(=O)O)C(=O)O)[C@@H](C)CC)NC(=O)[C@H]([C@@H](C)CC)NC(=O)[C@@H]2CCCN2C(=O)[C@@H]2CCCCN2C(=O)[C@H](CC(C)C)NC(=O)[C@H](CO)NC(=O)[C@H](CCCNC(=N)N)NC(=O)[C@H](CO)NC1=O) [Example 401: GIC+SRSL-(Pip)-PIC+ID-OH] |  |  | 56

Further lines, results first:

human MASP1 IC50 [1] [nM] | human MASP2 IC50 [2] [nM] | human MASP1 IC50 [3] [nM] | Binder
16 | 930 |  | AICSRSLP[Oic]ICI-OH (disulfide 3-11; N-terminus assumed; SMILES CC[C@H](C)[C@H](NC(=O)[C@@H]1CSSC[C@H](NC(=O)[C@@H](NC(=O)[C@H](C)N)[C@@H](C)CC)C(=O)N[C@@H](CO)C(=O)N[C@@H](CCCNC(=N)N)C(=O)N[C@@H](CO)C(=O)N[C@@H](CC(C)C)C(=O)N2CCC[C@H]2C(=O)N2[C@@H](C[C@@H]3CCCC[C@@H]32)C(=O)N[C@@H]([C@@H](C)CC)C(=O)N1)C(=O)O) [AIC+SRSLP-(Oic)-IC+I-OH]
 |  | 52 | [Sar]ICSRSLPPICIPN-OH (disulfide 3-11; N-terminus assumed; SMILES CC[C@H](C)[C@H](NC(=O)CNC)C(=O)N[C@H]1CSSC[C@@H](C(=O)N[C@H](C(=O)N2CCC[C@H]2C(=O)N[C@@H](CC(N)=O)C(=O)O)[C@@H](C)CC)NC(=O)[C@H]([C@@H](C)CC)NC(=O)[C@@H]2CCCN2C(=O)[C@@H]2CCCN2C(=O)[C@H](CC(C)C)NC(=O)[C@H](CO)NC(=O)[C@H](CCCNC(=N)N)NC(=O)[C@H](CO)NC1=O) [Example 394: ((N-Me)G)-IC+SRSLPPIC+IPN-OH]
16 | 6500 |  | [Sar]ICTRSLPPICIPD-OH (disulfide 3-11; N-terminus assumed; SMILES CC[C@H](C)[C@H](NC(=O)CNC)C(=O)N[C@H]1CSSC[C@@H](C(=O)N[C@H](C(=O)N2CCC[C@H]2C(=O)N[C@@H](CC(=O)O)C(=O)O)[C@@H](C)CC)NC(=O)[C@H]([C@@H](C)CC)NC(=O)[C@@H]2CCCN2C(=O)[C@@H]2CCCN2C(=O)[C@H](CC(C)C)NC(=O)[C@H](CO)NC(=O)[C@H](CCCNC(=N)N)NC(=O)[C@H]([C@@H](C)O)NC1=O) [((N-Me)G)-IC+TRSLPPIC+IPD-OH]
 |  | 2 | AICSRSLP[Oic]I[Pen]IPD-OH (disulfide 3-11; also: sodium salt) [Example 431: AIC+SRSLP-(Oic)-I-(Pen)+IPD-OH (sodium salt)]
19 | 1400 |  | AICSRSLPP[(3-Chloro-Ph)G]CIPD-NH2 (disulfide 3-11; N-terminus assumed; SMILES CC[C@H](C)[C@H](NC(=O)[C@H](C)N)C(=O)N[C@H]1CSSC[C@@H](C(=O)N[C@H](C(=O)N2CCC[C@H]2C(=O)N[C@@H](CC(=O)O)C(N)=O)[C@@H](C)CC)NC(=O)[C@H](c2cccc(Cl)c2)NC(=O)[C@@H]2CCCN2C(=O)[C@@H]2CCCN2C(=O)[C@H](CC(C)C)NC(=O)[C@H](CO)NC(=O)[C@H](CCCNC(=N)N)NC(=O)[C@H](CO)NC1=O) [AIC+SRSLPP-((3-Chloro-Ph)G)-C+IPD-NH2]
18 | 910 |  | [Orn]ICSRS[tBuAla]PPI[NMeC][X17]D-NH2 (disulfide 3-11; N-terminus assumed; SMILES CC[C@H](C)[C@H](NC(=O)[C@@H](N)CCCN)C(=O)N[C@H]1CSSC[C@@H](C(=O)N[C@H](c2nc(C(=O)N[C@@H](CC(=O)O)C(N)=O)co2)[C@@H](C)CC)N(C)C(=O)[C@H]([C@@H](C)CC)NC(=O)[C@@H]2CCCN2C(=O)[C@@H]2CCCN2C(=O)[C@H](CC(C)(C)C)NC(=O)[C@H](CO)NC(=O)[C@H](CCCNC(=N)N)NC(=O)[C@H](CO)NC1=O)
19 | 500 |  | ICSRS[tBuAla]PPI[Pen]IPP-NH2 (disulfide 2-10; N-terminus assumed; SMILES CC[C@H](C)[C@H](N)C(=O)N[C@H]1CSSC(C)(C)[C@@H](C(=O)N[C@H](C(=O)N2CCC[C@H]2C(=O)N2CCC[C@H]2C(N)=O)[C@@H](C)CC)NC(=O)[C@H]([C@@H](C)CC)NC(=O)[C@@H]2CCCN2C(=O)[C@@H]2CCCN2C(=O)[C@H](CC(C)(C)C)NC(=O)[C@H](CO)NC(=O)[C@H](CCCNC(=N)N)NC(=O)[C@H](CO)NC1=O) [IC+SRS-((tBu)A)-PPI-(Pen)+IPP-NH2]
18 | 19 |  | Cyclobutanecarbonyl-ICSRS[tBuAla]PPI[NMeC]I-NH2 (disulfide 2-10; SMILES CC[C@H](C)[C@H](NC(=O)[C@@H]1CSSC[C@H](NC(=O)[C@@H](NC(=O)C2CCC2)[C@@H](C)CC)C(=O)N[C@@H](CO)C(=O)N[C@@H](CCCNC(=N)N)C(=O)N[C@@H](CO)C(=O)N[C@@H](CC(C)(C)C)C(=O)N2CCC[C@H]2C(=O)N2CCC[C@H]2C(=O)N[C@@H]([C@@H](C)CC)C(=O)N1C)C(N)=O) [(Cyclobutanecarboxylic)-IC+SRS-((tBu)A)-PPI-((N-Me)C)+I-NH2]
17 | 603 |  | ICSRSLP[Oic]I[Pen]IPD-NH2 (disulfide 2-10; N-terminus assumed; SMILES CC[C@H](C)[C@H](N)C(=O)N[C@H]1CSSC(C)(C)[C@@H](C(=O)N[C@H](C(=O)N2CCC[C@H]2C(=O)N[C@@H](CC(=O)O)C(N)=O)[C@@H](C)CC)NC(=O)[C@H]([C@@H](C)CC)NC(=O)[C@@H]2C[C@@H]3CCCC[C@@H]3N2C(=O)[C@@H]2CCCN2C(=O)[C@H](CC(C)C)NC(=O)[C@H](CO)NC(=O)[C@H](CCCNC(=N)N)NC(=O)[C@H](CO)NC1=O) [IC+SRSLP-(Oic)-I-(Pen)+IPD-NH2]
